In US20080280346A1 (published 2008):

Target: T1, α-amylase
T1 construct: Coated on ELISA plates at 200 µg/ml in PBS
Assay: ELISA, plate coated with α-amylase, dimer compared with monomeric VamyHlyA

B1: VamyZHlyA (VHH)
VHH: QVQLVESWGGSVQAGGSLRLSCTAPGFTSNSCRMDWYRQAAGKQREWVSSISTDGRTSYADSVKGRFTISKDKAKDTVYLQMNSLKPEDTAIYYCAVRTNGYRPQSHEFRYWGPGTQVTVSS
modifications: Non-covalent homodimer through the GCN4 leucine zipper; one monomer chain is given.
notes: also called dimeric VHH-HlyA polypeptide; VHH-ZEHlyA hybrid
- fold increase in functional affinity (avidity) against the monomeric form: 10 fold
